Measured values: patent US20080020978A1 (Amgen, published 2008)
Square brackets hold non-standard residues; d marks the D form. 1Nal = N[C@@H](Cc1cccc2ccccc12)C(=O)O; hArg = N=C(N)NCCCC[C@H](N)C(=O)O; Tic = O=C(O)[C@@H]1Cc2ccccc2CN1; Cit = NC(=O)NCCC[C@H](N)C(=O)O; Nva = CCC[C@H](N)C(=O)O; Aib = CC(C)(N)C(=O)O

Columns and labels:
[1] = target: T1, CGRP1 receptor (CRLR/RAMP1 complex) of human neuroblastoma SK-N-MC cells (human, UniProt Q16602 23-461; O60894 27-148); experiment: cell-based or functional assay
T1 sequence (Q16602 23-461, chain 1 of 2): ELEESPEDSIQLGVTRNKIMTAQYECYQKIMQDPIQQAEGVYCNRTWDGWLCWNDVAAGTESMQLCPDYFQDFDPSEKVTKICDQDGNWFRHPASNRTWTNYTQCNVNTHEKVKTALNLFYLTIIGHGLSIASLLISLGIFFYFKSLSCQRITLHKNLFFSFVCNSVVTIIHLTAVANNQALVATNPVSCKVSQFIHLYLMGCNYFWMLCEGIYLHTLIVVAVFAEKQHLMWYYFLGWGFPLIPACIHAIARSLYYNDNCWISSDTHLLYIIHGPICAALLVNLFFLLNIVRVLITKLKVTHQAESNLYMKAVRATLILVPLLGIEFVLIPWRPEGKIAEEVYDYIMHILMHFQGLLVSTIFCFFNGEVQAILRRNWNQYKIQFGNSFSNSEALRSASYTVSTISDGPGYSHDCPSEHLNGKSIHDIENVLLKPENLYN
T1 sequence (O60894 27-148, chain 2 of 2): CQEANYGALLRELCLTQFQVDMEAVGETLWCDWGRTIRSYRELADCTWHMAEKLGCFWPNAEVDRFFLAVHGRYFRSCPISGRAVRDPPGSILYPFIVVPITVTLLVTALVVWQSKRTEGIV

[2] = target: T1, CGRP1 receptor (CRLR/RAMP1 complex) of …; experiment: cell-based or functional assay; remark: listed apart in the source

Binder: Ac-WVTHRLAGLLSRSGGVVRCNFVPTDVGPFAF-NH2 [SEQ ID NO 764]
- IC50 [1]: 0.91 nM

Binder: Ac-WVTHRLAGLLSRSGGVVRC(5 kDa MeO‑PEG)NFVPTDVGPFAF-NH2 [SEQ ID NO 765]
- IC50 [1]: 2.52 nM

Binder: Ac-WVTHRLAGLLSRSGGVVRC(30 kDa MeO‑PEG)NFVPTDVGPFAF-NH2 [SEQ ID NO 767]
- IC50 [1]: 7.86 nM

Binder: Ac-WVTHRLAGLLSRSGGVVRC(20 kDa branched MeO‑PEG2)NFVPTDVGPFAF-NH2 [SEQ ID NO 768]
- IC50 [1]: 23.8 nM

Binder: Ac-WVTHRLAGLLSRSGGVVRC(40 kDa branched MeO‑PEG2)NFVPTDVGPFAF-NH2 [SEQ ID NO 769]
- IC50 [1]: 33.4 nM

Binder: Ac-[1Nal]VTH[Cit]LAGLLS[Cit]SGGVVRKNFVPTDVGPFAF-NH2 (also: PEG-conjugated, in most cases at Lys25) [PEG-peptide of SEQ ID NO 872]
- PEG-peptide IC50 [2]: 11 nM

B1: SEQ ID NO 873 (peptide)
peptide: Ac-WVTH[Cit][Nva]AG[Nva][Nva]T[Cit]SGGVVRKNFVPTDVGPFAF-NH2
SMILES: CCC[C@H](NC(=O)CNC(=O)[C@H](C)NC(=O)[C@H](CCC)NC(=O)[C@H](CCCNC(N)=O)NC(=O)[C@H](Cc1c[nH]cn1)NC(=O)[C@@H](NC(=O)[C@@H](NC(=O)[C@H](Cc1c[nH]c2ccccc12)NC(C)=O)C(C)C)[C@@H](C)O)C(=O)N[C@@H](CCC)C(=O)N[C@H](C(=O)N[C@@H](CCCNC(N)=O)C(=O)N[C@@H](CO)C(=O)NCC(=O)NCC(=O)N[C@H](C(=O)N[C@H](C(=O)N[C@@H](CCCNC(=N)N)C(=O)N[C@@H](CCCCN)C(=O)N[C@@H](CC(N)=O)C(=O)N[C@@H](Cc1ccccc1)C(=O)N[C@H](C(=O)N1CCC[C@H]1C(=O)N[C@H](C(=O)N[C@@H](CC(=O)O)C(=O)N[C@H](C(=O)NCC(=O)N1CCC[C@H]1C(=O)N[C@@H](Cc1ccccc1)C(=O)N[C@@H](C)C(=O)N[C@@H](Cc1ccccc1)C(N)=O)C(C)C)[C@@H](C)O)C(C)C)C(C)C)C(C)C)[C@@H](C)O
- Peptide IC50 [2]: 63 nM

Binder: WVTHRXAGLLSRXGGVVRKNFVPTDVGPFAF (Ac-WVTHR[NMeLeu]AGLLSR[NMeSer]GGVVRKNFVPTDVGPFAF-NH2) [SEQ ID NO 874]
- Peptide IC50 [2]: 2.92 nM

B2: PEG-peptide of SEQ ID NO 874 (peptide)
peptide: WVTHRXAGLLSRXGGVVRKNFVPTDVGPFAF
modifications: Ac-WVTHR[NMeLeu]AGLLSR[NMeSer]GGVVRKNFVPTDVGPFAF-NH2; PEG-conjugated (Table 2C: in most cases at Lys^25)
- PEG-peptide IC50 [2]: 208 nM

Binder: WVTHXLAGLLSXSGGVVRKNFVPTDVGPFAF (Ac-WVTH[NMeArg]LAGLLS[NMeArg]SGGVVRKNFVPTDVGPFAF-NH2) [SEQ ID NO 875]
- Peptide IC50 [2]: 1.63 nM

B3: SEQ ID NO 876 (peptide)
peptide: Ac-WVTHRLAGLLSRSGGVVRKNFV[Tic]TDVGPFAF-NH2
SMILES: CC(=O)N[C@@H](Cc1c[nH]c2ccccc12)C(=O)N[C@H](C(=O)N[C@H](C(=O)N[C@@H](Cc1c[nH]cn1)C(=O)N[C@@H](CCCNC(=N)N)C(=O)N[C@@H](CC(C)C)C(=O)N[C@@H](C)C(=O)NCC(=O)N[C@@H](CC(C)C)C(=O)N[C@@H](CC(C)C)C(=O)N[C@@H](CO)C(=O)N[C@@H](CCCNC(=N)N)C(=O)N[C@@H](CO)C(=O)NCC(=O)NCC(=O)N[C@H](C(=O)N[C@H](C(=O)N[C@@H](CCCNC(=N)N)C(=O)N[C@@H](CCCCN)C(=O)N[C@@H](CC(N)=O)C(=O)N[C@@H](Cc1ccccc1)C(=O)N[C@H](C(=O)N1Cc2ccccc2C[C@H]1C(=O)N[C@H](C(=O)N[C@@H](CC(=O)O)C(=O)N[C@H](C(=O)NCC(=O)N1CCC[C@H]1C(=O)N[C@@H](Cc1ccccc1)C(=O)N[C@@H](C)C(=O)N[C@@H](Cc1ccccc1)C(N)=O)C(C)C)[C@@H](C)O)C(C)C)C(C)C)C(C)C)[C@@H](C)O)C(C)C
- Peptide IC50 [2]: 2.33 nM

Binder: WVTHXLAGLLSXSGGVVRKNFVXTDVGPFAF (Ac-WVTH[Cit]LAGLLS[Cit]SGGVVRKNFV[Hyp]TDVGPFAF-NH2) [SEQ ID NO 877]
- Peptide IC50 [2]: 1.81 nM

B4: SEQ ID NO 879 (peptide)
peptide: Ac-WVTHRLAGLLSRSGGVVRKNFV[Aib]TDVGPFAF-NH2
SMILES: CC(=O)N[C@@H](Cc1c[nH]c2ccccc12)C(=O)N[C@H](C(=O)N[C@H](C(=O)N[C@@H](Cc1c[nH]cn1)C(=O)N[C@@H](CCCNC(=N)N)C(=O)N[C@@H](CC(C)C)C(=O)N[C@@H](C)C(=O)NCC(=O)N[C@@H](CC(C)C)C(=O)N[C@@H](CC(C)C)C(=O)N[C@@H](CO)C(=O)N[C@@H](CCCNC(=N)N)C(=O)N[C@@H](CO)C(=O)NCC(=O)NCC(=O)N[C@H](C(=O)N[C@H](C(=O)N[C@@H](CCCNC(=N)N)C(=O)N[C@@H](CCCCN)C(=O)N[C@@H](CC(N)=O)C(=O)N[C@@H](Cc1ccccc1)C(=O)N[C@H](C(=O)NC(C)(C)C(=O)N[C@H](C(=O)N[C@@H](CC(=O)O)C(=O)N[C@H](C(=O)NCC(=O)N1CCC[C@H]1C(=O)N[C@@H](Cc1ccccc1)C(=O)N[C@@H](C)C(=O)N[C@@H](Cc1ccccc1)C(N)=O)C(C)C)[C@@H](C)O)C(C)C)C(C)C)C(C)C)[C@@H](C)O)C(C)C
- Peptide IC50 [2]: 4.2 nM

B5: PEG-peptide of SEQ ID NO 880 (peptide)
peptide: WVTHXLAGLLSXSGGVVXKNFVPTDVGPFAF
modifications: Ac-WVTH[Cit]LAGLLS[hArg]SGGVV[hArg]KNFVPTDVGPFAF-NH2; PEG-conjugated (Table 2C: in most cases at Lys^25)
- PEG-peptide IC50 [2]: 2.06 nM

Binder: Ac-WVTH[Cit]LAGLLSQSGGVV[hArg]KNFVPTDVGPFAF-NH2 (also: PEG-conjugated, in most cases at Lys25) [PEG-peptide of SEQ ID NO 883]
- PEG-peptide IC50 [2]: 7.42 nM

Binder: Ac-WVTHQLAGLLS[Cit]SGGVV[hArg]KNFVPTDVGPFAF-NH2 (also: PEG-conjugated, in most cases at Lys25) [PEG-peptide of SEQ ID NO 884]
- PEG-peptide IC50 [2]: 8.87 nM

B6: SEQ ID NO 885 (peptide)
peptide: Ac-WVTHQLAGLLSQSGGVV[hArg]KNFVPTDVGPFAF-NH2
SMILES: CC(=O)N[C@@H](Cc1c[nH]c2ccccc12)C(=O)N[C@H](C(=O)N[C@H](C(=O)N[C@@H](Cc1c[nH]cn1)C(=O)N[C@@H](CCC(N)=O)C(=O)N[C@@H](CC(C)C)C(=O)N[C@@H](C)C(=O)NCC(=O)N[C@@H](CC(C)C)C(=O)N[C@@H](CC(C)C)C(=O)N[C@@H](CO)C(=O)N[C@@H](CCC(N)=O)C(=O)N[C@@H](CO)C(=O)NCC(=O)NCC(=O)N[C@H](C(=O)N[C@H](C(=O)N[C@@H](CCCCNC(=N)N)C(=O)N[C@@H](CCCCN)C(=O)N[C@@H](CC(N)=O)C(=O)N[C@@H](Cc1ccccc1)C(=O)N[C@H](C(=O)N1CCC[C@H]1C(=O)N[C@H](C(=O)N[C@@H](CC(=O)O)C(=O)N[C@H](C(=O)NCC(=O)N1CCC[C@H]1C(=O)N[C@@H](Cc1ccccc1)C(=O)N[C@@H](C)C(=O)N[C@@H](Cc1ccccc1)C(N)=O)C(C)C)[C@@H](C)O)C(C)C)C(C)C)C(C)C)[C@@H](C)O)C(C)C
- Peptide IC50 [2]: 1.42 nM

Binder: Ac-WVTHQLAGLLSQSGGVV[hArg]KNFVPTDVGPFAF-NH2 (also: PEG-conjugated, in most cases at Lys25) [PEG-peptide of SEQ ID NO 885]
- PEG-peptide IC50 [2]: 12.4 nM

Binder: WVTHXLAGLLSXSGGVVXKNFVPTDVGPFAF (Ac-WVTH[hCit]LAGLLS[hCit]SGGVV[hArg]KNFVPTDVGPFAF-NH2) [SEQ ID NO 886]
- Peptide IC50 [2]: 4.96 nM
